Here are results for 125 sequences from the supplement of paper PMC9112550, “Optimization of the antimicrobial peptide Bac7 by deep mutational scanning” (BMC Biology, 2022).
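Further: peptides expressed intracellularly from a pBAD plasmid library in pooled LB shake-flask culture, induced with 0.3% L-arabinose, DNA abundance read by NGS, three biological replicates, DESeq2 with apeglm shrinkage.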

The data set deals with Escherichia coli TOP10. Briefly: shrunken log2 fold change of peptide-encoding DNA abundance (4.5 h post-induction vs induction); higher = less antimicrobial activity (less host growth inhibition). The following applies: time post-induction: 4.5 h; library: site-saturation at positions 5, 18, 19, 20.
Take RRIRWRPPRLPRPRPRPYHHPRP: the “shrunken log2 fold change” value was -1.02.
RRIRCRPPRLPRPRPRPHYKPRP: the “shrunken log2 fold change” value was -0.894.
RRIRRRPPRLPRPRPRPMMTPRP: the “shrunken log2 fold change” value is 0.975.
In the case of RRIRKRPPRLPRPRPRPHKCPRP, the “shrunken log2 fold change” value came out at 2.12.
Consider RRIRARPPRLPRPRPRPSEIPRP, for which the “shrunken log2 fold change” value is -0.00993.
For RRIRMRPPRLPRPRPRPVCTPRP, the “shrunken log2 fold change” value stood at 0.479.
For the sequence RRIRERPPRLPRPRPRPKRIPRP, the “shrunken log2 fold change” value worked out at 0.103.
For RRIRGRPPRLPRPRPRPQHPPRP, the “shrunken log2 fold change” value is 0.426.
On to RRIRKRPPRLPRPRPRPRWTPRP, for which the “shrunken log2 fold change” value stood at 0.347.
The result for RRIRQRPPRLPRPRPRPENHPRP reads -0.176; that for RRIRYRPPRLPRPRPRPKGEPRP, -0.212.
In the case of RRIRWRPPRLPRPRPRPYRAPRP, the “shrunken log2 fold change” value was -0.399.
For the sequence RRIRERPPRLPRPRPRPSLHPRP, the “shrunken log2 fold change” value is -0.309.
On to RRIRYRPPRLPRPRPRPLVTPRP, for which the “shrunken log2 fold change” value was -0.616.
As for RRIRYRPPRLPRPRPRPFPLPRP, the “shrunken log2 fold change” value was -0.109.
To RRIRQRPPRLPRPRPRPVPRPRP belongs 0.829.
As for RRIRWRPPRLPRPRPRPETQPRP, the “shrunken log2 fold change” value was 0.0616.
Regarding RRIRCRPPRLPRPRPRPECEPRP, the “shrunken log2 fold change” value was determined as 0.757.
In the case of RRIRVRPPRLPRPRPRPVKDPRP, the “shrunken log2 fold change” value was 0.0828.
As to RRIRRRPPRLPRPRPRPMHSPRP, the “shrunken log2 fold change” value is 0.36.
On to RRIRSRPPRLPRPRPRPFFAPRP, for which the “shrunken log2 fold change” value is 0.205.
Turning to RRIRCRPPRLPRPRPRPTQRPRP, the “shrunken log2 fold change” value is 0.514.
For RRIRDRPPRLPRPRPRPGFHPRP, the “shrunken log2 fold change” value worked out at 0.0294.
As for RRIRCRPPRLPRPRPRPMPWPRP, the “shrunken log2 fold change” value worked out at 0.0515.
The result for RRIRRRPPRLPRPRPRPSGTPRP reads 0.494; that for RRIRIRPPRLPRPRPRPTRSPRP, -0.00877; that for RRIRRRPPRLPRPRPRPHTTPRP, -0.303.
As for RRIRIRPPRLPRPRPRPWKYPRP, the “shrunken log2 fold change” value is -0.254.
RRIRYRPPRLPRPRPRPKPNPRP: the “shrunken log2 fold change” value was -0.158.
As for RRIRCRPPRLPRPRPRPDWGPRP, the “shrunken log2 fold change” value is -0.134.
To RRIRGRPPRLPRPRPRPCEYPRP belongs 0.0669; to RRIRFRPPRLPRPRPRPPGTPRP, 0.316; to RRIRTRPPRLPRPRPRPRTHPRP, -0.0753.
Turning to RRIRVRPPRLPRPRPRPAACPRP, the “shrunken log2 fold change” value was 0.244.
The result for RRIRPRPPRLPRPRPRPIWGPRP reads 0.0815; that for RRIRGRPPRLPRPRPRPRCMPRP, 0.364; that for RRIRARPPRLPRPRPRPHQLPRP, 0.086.
The result for RRIRYRPPRLPRPRPRPKRCPRP reads 0.0441.
RRIRQRPPRLPRPRPRPVSCPRP: the “shrunken log2 fold change” value came to 0.0853.
Turning to RRIRDRPPRLPRPRPRPDSQPRP, the “shrunken log2 fold change” value is -0.0289.
In the case of RRIRDRPPRLPRPRPRPSGTPRP, the “shrunken log2 fold change” value was -0.199.
Turning to RRIRERPPRLPRPRPRPFYEPRP, the “shrunken log2 fold change” value is -0.498.
On to RRIRDRPPRLPRPRPRPYAMPRP, for which the “shrunken log2 fold change” value worked out at 0.168.
RRIRVRPPRLPRPRPRPQQRPRP: the “shrunken log2 fold change” value was 0.0774.
Consider RRIRMRPPRLPRPRPRPGICPRP, for which the “shrunken log2 fold change” value stood at 0.507.
Regarding RRIRVRPPRLPRPRPRPFSGPRP, the “shrunken log2 fold change” value was -0.337.
With RRIRVRPPRLPRPRPRPNWVPRP, the “shrunken log2 fold change” value stood at 0.213.
The result for RRIRCRPPRLPRPRPRPPVWPRP reads 0.129; that for RRIRKRPPRLPRPRPRPPVNPRP, 0.04.
Consider RRIRCRPPRLPRPRPRPECTPRP, for which the “shrunken log2 fold change” value was -0.0491.
Turning to RRIRTRPPRLPRPRPRPIGPPRP, the “shrunken log2 fold change” value stood at 0.0411.
In the case of RRIRQRPPRLPRPRPRPGKFPRP, the “shrunken log2 fold change” value is -0.148.
For RRIRDRPPRLPRPRPRPKNHPRP, the “shrunken log2 fold change” value was -0.195.
As for RRIRFRPPRLPRPRPRPQSDPRP, the “shrunken log2 fold change” value came to 0.0151.
For RRIRSRPPRLPRPRPRPCGLPRP, the “shrunken log2 fold change” value is 0.00512.
Regarding RRIRDRPPRLPRPRPRPVEMPRP, the “shrunken log2 fold change” value is -0.0847.
For the sequence RRIRMRPPRLPRPRPRPSQQPRP, the “shrunken log2 fold change” value is 0.463.
With RRIRQRPPRLPRPRPRPFYKPRP, the “shrunken log2 fold change” value is -0.118.
Turning to RRIRNRPPRLPRPRPRPESLPRP, the “shrunken log2 fold change” value worked out at 0.0505.
For the sequence RRIRGRPPRLPRPRPRPNHSPRP, the “shrunken log2 fold change” value amounted to 0.195.
In the case of RRIRPRPPRLPRPRPRPFYWPRP, the “shrunken log2 fold change” value is -0.107.
For the sequence RRIRVRPPRLPRPRPRPRHMPRP, the “shrunken log2 fold change” value was 0.152.
Turning to RRIRFRPPRLPRPRPRPRECPRP, the “shrunken log2 fold change” value stood at 0.277.
As to RRIRTRPPRLPRPRPRPAHPPRP, the “shrunken log2 fold change” value stood at 0.396.
For RRIRPRPPRLPRPRPRPHFIPRP, the “shrunken log2 fold change” value was -0.468.
To RRIRLRPPRLPRPRPRPYSKPRP belongs -0.434.
Turning to RRIRMRPPRLPRPRPRPNLPPRP, the “shrunken log2 fold change” value was -0.0556.
Turning to RRIRRRPPRLPRPRPRPQADPRP, the “shrunken log2 fold change” value is 0.312.
For the sequence RRIRMRPPRLPRPRPRPFWMPRP, the “shrunken log2 fold change” value was found to be 0.154.
The result for RRIRLRPPRLPRPRPRPLESPRP reads -0.212; that for RRIRRRPPRLPRPRPRPTPYPRP, 0.545.
RRIRERPPRLPRPRPRPPMWPRP: the “shrunken log2 fold change” value amounted to 0.245.
Take RRIRHRPPRLPRPRPRPHCQPRP: the “shrunken log2 fold change” value is -0.0776.
Consider RRIRTRPPRLPRPRPRPESPPRP, for which the “shrunken log2 fold change” value was 0.305.
To RRIRCRPPRLPRPRPRPSISPRP belongs -0.136; to RRIRKRPPRLPRPRPRPCQDPRP, 0.0115.
For RRIRHRPPRLPRPRPRPGVMPRP, the “shrunken log2 fold change” value was -0.0309.
Turning to RRIRQRPPRLPRPRPRPYAEPRP, the “shrunken log2 fold change” value was -0.0595.
The result for RRIRPRPPRLPRPRPRPDFTPRP reads -0.411; that for RRIRARPPRLPRPRPRPYFYPRP, -0.619.
Turning to RRIRHRPPRLPRPRPRPDFNPRP, the “shrunken log2 fold change” value is -0.607.
Take RRIRSRPPRLPRPRPRPVWFPRP: the “shrunken log2 fold change” value is -0.121.
RRIRMRPPRLPRPRPRPKWLPRP: the “shrunken log2 fold change” value is 0.612.
Take RRIRIRPPRLPRPRPRPHDYPRP: the “shrunken log2 fold change” value was -0.262.
For the sequence RRIRLRPPRLPRPRPRPYYGPRP, the “shrunken log2 fold change” value is -0.838.
To RRIRERPPRLPRPRPRPPRSPRP belongs 0.375; to RRIRRRPPRLPRPRPRPDLDPRP, 0.67.
As to RRIRTRPPRLPRPRPRPKGFPRP, the “shrunken log2 fold change” value was found to be 0.0975.
Regarding RRIRNRPPRLPRPRPRPTKLPRP, the “shrunken log2 fold change” value was found to be 0.0886.
Take RRIRCRPPRLPRPRPRPNCRPRP: the “shrunken log2 fold change” value was -0.00263.
RRIRHRPPRLPRPRPRPVHMPRP: the “shrunken log2 fold change” value was -0.0408.
Turning to RRIRHRPPRLPRPRPRPIYWPRP, the “shrunken log2 fold change” value is -0.181.
For RRIRLRPPRLPRPRPRPEMEPRP, the “shrunken log2 fold change” value is -0.0177.
Take RRIRWRPPRLPRPRPRPSAPPRP: the “shrunken log2 fold change” value was 0.499.
On to RRIRIRPPRLPRPRPRPFHPPRP, for which the “shrunken log2 fold change” value was -0.111.
With RRIRWRPPRLPRPRPRPCQFPRP, the “shrunken log2 fold change” value is -0.00192.
In the case of RRIRDRPPRLPRPRPRPDSPPRP, the “shrunken log2 fold change” value was -0.248.
For RRIRTRPPRLPRPRPRPIKQPRP, the “shrunken log2 fold change” value is -0.0342.
Regarding RRIRFRPPRLPRPRPRPKLAPRP, the “shrunken log2 fold change” value worked out at 0.559.
RRIRYRPPRLPRPRPRPYFDPRP: the “shrunken log2 fold change” value was -0.27.
Consider RRIRIRPPRLPRPRPRPDHNPRP, for which the “shrunken log2 fold change” value was -0.919.
On to RRIRCRPPRLPRPRPRPLSHPRP, for which the “shrunken log2 fold change” value is -0.432.
As for RRIRFRPPRLPRPRPRPHKWPRP, the “shrunken log2 fold change” value was -0.073.
RRIRVRPPRLPRPRPRPMLTPRP: the “shrunken log2 fold change” value was -0.066.
Take RRIRRRPPRLPRPRPRPRHMPRP: the “shrunken log2 fold change” value was -0.0552.
As to RRIRDRPPRLPRPRPRPIDAPRP, the “shrunken log2 fold change” value was -0.264.
In the case of RRIRIRPPRLPRPRPRPDDTPRP, the “shrunken log2 fold change” value is -0.131.
To RRIRVRPPRLPRPRPRPMFMPRP belongs -0.562.
Take RRIRWRPPRLPRPRPRPLVPPRP: the “shrunken log2 fold change” value is -0.000952.
Regarding RRIRLRPPRLPRPRPRPDIFPRP, the “shrunken log2 fold change” value was -0.282.
As to RRIRERPPRLPRPRPRPMNKPRP, the “shrunken log2 fold change” value is -0.765.
As to RRIRQRPPRLPRPRPRPVQRPRP, the “shrunken log2 fold change” value came out at 0.862.
Consider RRIRTRPPRLPRPRPRPMMRPRP, for which the “shrunken log2 fold change” value came out at 0.933.
RRIRVRPPRLPRPRPRPVMMPRP: the “shrunken log2 fold change” value is -0.938.
To RRIRRRPPRLPRPRPRPAFPPRP belongs 0.356; to RRIRLRPPRLPRPRPRPGWWPRP, 0.155.
In the case of RRIRGRPPRLPRPRPRPKPVPRP, the “shrunken log2 fold change” value was found to be 0.985.
As to RRIRFRPPRLPRPRPRPMWYPRP, the “shrunken log2 fold change” value was -0.0081.
As to RRIRQRPPRLPRPRPRPFWVPRP, the “shrunken log2 fold change” value amounted to 0.176.
For the sequence RRIRYRPPRLPRPRPRPVHFPRP, the “shrunken log2 fold change” value was -0.451.
On to RRIRFRPPRLPRPRPRPGLMPRP, for which the “shrunken log2 fold change” value was -0.125.
As to RRIRHRPPRLPRPRPRPPMWPRP, the “shrunken log2 fold change” value was found to be 1.04.
The result for RRIRVRPPRLPRPRPRPHWEPRP reads -0.0118; that for RRIRLRPPRLPRPRPRPDGLPRP, -0.115.
RRIRPRPPRLPRPRPRPRERPRP: the “shrunken log2 fold change” value is 0.121.
